Experimental data as given in patent US20050064493A1 (LICENTIA, published 2005).

Legend:
human VEGF165 [1] = molecular target: T1, human VEGF165 (human, UniProt P15692 27-191); experiment: cotransfected Cos-1 cells; immunoprecipitation of media and lysates, reducing SDS-PAGE (FIG. 23B)
T1 construct: mature; Expressed from cDNA in 293EBNA cells (pREP7) or Cos-1 cells (pSG5)
Description: cDNA inserts encoding mouse VEGF-B₁₈₆ and human VEGF₁₆₅ were cloned into the pSG5 expression vector [Green et al., Nucleic Acid Res., 16:369 (1988)]. Cos-1 cells were maintained in minimal essential medium (MEM) containing 10% fetal calf serum, 2 mM glutamine and appropriate antibiotics. For transfections, the cells were replated into 90 mm Petri dishes. The cells were transfected with the expression vectors, separately or in combination, using calcium phosphate precipitation and incubated for 36-48 hours. Monolayers of cells were incubated in medium free of methionine and cysteine for 30 min and then incubated in the same medium containing 100 μCi/ml of [³⁵S]-methionine and [³⁵S]-cysteine for 2 hours (Promix Amersham Inc.).
For the pulse-chase experiments, the cells were labeled for 30 minutes, washed twice with normal medium and then incubated for up to 6 hours in MEM without fetal calf serum. Media were collected after the chase period and the cells were solubilized in 10 mM Tris buffer pH 7.5 containing 50 mM NaCl, 0.5% deoxycholate, 0.5% nonidet P-40 and 0.1% SDS. Aliquots of the media and the cell lysates were subjected to immunoprecipitation using the specific antiserum to mouse VEGF-B from Example 8a and a specific antiserum to human VEGF commercially available from R&D Systems. The precipitates were analyzed by SDS-PAGE. […]

[2] = molecular target: the molecule itself; experiment: SDS-PAGE and immunoblot of Sf21 culture medium
Description: Sf21 cells [see Vaughn et al., In Vitro, 13:213-17 (1977)] were infected with the baculovirus stocks of Example 10 at a multiplicity of infection of 10 virus particles per cell. The infected Sf21 cells were grown in roller flasks and seeded at a density of 2×10⁶ cells per ml of serum free medium (Sf900II, Gibco-BRL) for 96 hours. Culture media and cells were then harvested. Aliquots of the cell lysates and of the media were analyzed by SDS-PAGE. Total protein patterns were visualized by staining the gels with Coomassie Brilliant Blue and the presence of expressed VEGF-B isoforms were visualized by immunoblotting using specific antipeptide antibodies to human and mouse VEGF-B as described above in Example 8. […] Both proteins were retained intracellularly in the infected cells and not released into the medium. In contrast, mouse VEGF-B-₁₈₆ was readily secreted into the medium in a dimeric form.

[3] = molecular target: the molecule itself; experiment: immunoprecipitation and SDS-PAGE, transfected 293EBNA cells
Text: The biochemical properties of human VEGF-B₁₆₇ were examined in transfected human embryonic kidney 293EBNA cells (Invitrogen, Inc.). cDNA inserts encoding human VEGF-B₁₆₇ and human VEGF₁₆₅ [see Keck et al., Science, Vol. 246, pages 1309-312 (1989)] were individually cloned into the pREP7 expression vector (Invitrogen, Inc.). Human embryo kidney 293EBNA cells (expressing Epstein-Barr virus nuclear antigen-1) were transfected by transient transfection with the respective expression plasmids using calcium phosphate precipitation, and the cells were incubated for 48 hours. As a control, cells also were transfected with an expression vector containing the VEGF-B₁₆₇ cDNA in reverse orientation. Monolayers of cells were incubated in methionine-free and cysteine-free medium for 30 minutes followed by labeling with 100 μCi/ml [³⁵S]methionine and [³⁵S]cysteine (Promix, Amersham Inc.) in the same medium for 2 hours. […]
VEGF-B₁₆₇ was expressed in the cells transfected with the plasmids containing the VEGF-B₁₆₇ DNA. Aliquots of the culture supernatants from cells treated or untreated with heparin and detergent solubilized cell lysates were subjected to immunoprecipitation with the specific antipeptide antiserum to VEGF-B obtained as described in Example 8 and analyzed by SDS-PAGE under reducing conditions unless otherwise indicated. […]

human VEGF165 [4] = molecular target: T1, human VEGF165; experiment: coexpression in transfected cells, immunoprecipitation
Text: The biochemical properties of human VEGF-B₁₆₇ were examined in transfected human embryonic kidney 293EBNA cells (Invitrogen, Inc.). cDNA inserts encoding human VEGF-B₁₆₇ and human VEGF₁₆₅ [see Keck et al., Science, Vol. 246, pages 1309-312 (1989)] were individually cloned into the pREP7 expression vector (Invitrogen, Inc.). Human embryo kidney 293EBNA cells (expressing Epstein-Barr virus nuclear antigen-1) were transfected by transient transfection with the respective expression plasmids using calcium phosphate precipitation, and the cells were incubated for 48 hours. As a control, cells also were transfected with an expression vector containing the VEGF-B₁₆₇ cDNA in reverse orientation. Monolayers of cells were incubated in methionine-free and cysteine-free medium for 30 minutes followed by labeling with 100 μCi/ml [³⁵S]methionine and [³⁵S]cysteine (Promix, Amersham Inc.) in the same medium for 2 hours. The labeling medium was replaced with normal medium without serum, and labelled proteins were chased for 6 hours. Heparin was included during the chase when indicated (100 μg/ml). Media were collected after the chase period, and cells were solubilized in 10 mM Tris pH 7.5, 50 mM NaCl, 0.5% sodium deoxycholate, 0.5% Nonidet P-40, 0.1% SDS and 0.1 U/ml aprotinin. […]

T1 sequence (P15692 other isoform, or with tags, fused parts or gaps): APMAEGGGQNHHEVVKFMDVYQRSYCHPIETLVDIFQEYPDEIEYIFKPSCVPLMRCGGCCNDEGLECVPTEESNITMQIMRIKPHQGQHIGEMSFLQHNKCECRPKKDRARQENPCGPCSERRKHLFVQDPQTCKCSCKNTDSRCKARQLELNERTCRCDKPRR

B1: murine VEGF-B186 (ligand)
chain: PVAQFDGPSHQKKVVPWIDVYARATCQPREVVVPLSMELMGNVVKQLVPSCVTVQRCGGCCPDDGLECVPTGQHQVRMQILMIQYPSSQLGEMSLEEHSQCECRPKKKESAVKPDRVAIPHHRPQPRSVPGWDSTPGASSPADIIHPTPAPGSSARLAPSAVNALTPGPAAAAADAAASSIAKGGA
notes: Expressed in Cos-1 cells (pSG5) or Sf21 insect cells; The form secreted from Cos-1 cells carries an unidentified covalent modification (Mr 32,000 against 24,000 in cells); it forms disulfide-linked homodimers and heterodimers with VEGF165; also called mVEGF-B186; mouse VEGF-B186
Q: Which results are given for B1?
A: binding result (human VEGF165 [1]): binds; binding result [2]: binds

B2: human VEGF-B167 (ligand)
chain: PVSQPDAPGHQRKVVSWIDVYTRATCQPREVVVPLTVELMGTVAKQLVPSCVTVQRCGGCCPDDGLECVPTGQHQVRMQILMIRYPSSQLGEMSLEEHSQCECRPKKKDSAVKPDSPRPLCPRCTQHHQRPDPRTCRCRCRRRSFLRCQGRGLELNPDTCRCRKLRR
notes: Expressed from cDNA in 293EBNA cells (pREP7) or in Sf9/Sf21 insect cells; it forms disulfide-linked homodimers and heterodimers with VEGF165; also called hVEGF-B167; vascular endothelial growth factor B
Q: What does the source list for B2?
A: binding result [3]: binds; binding result (human VEGF165 [4]): binds
